Experimental data reported in patent US20210130473A1, “TGFßR1 INHIBITOR-ASGR ANTIBODY CONJUGATES AND USES THEREOF” (Silverback Therapeutics, Inc., priority 2019, published 2021).
Where a chain is given by its changes, count along the chain named. Numbers in names are those of the source. Blank lines part the entries; values can stand above or below the molecule they belong to.

What was measured:
[1] = target: T1, rat ASGR1 (Rattus norvegicus, UniProt P02706); test: Binding to cell surface expressed rat ASGR1 (transiently transfected CHO-S cells, GUAVA)
T1 construct: expressed in transfected cells; host or cells: CHO-S (transient)
T1 sequence (P02706 1-284): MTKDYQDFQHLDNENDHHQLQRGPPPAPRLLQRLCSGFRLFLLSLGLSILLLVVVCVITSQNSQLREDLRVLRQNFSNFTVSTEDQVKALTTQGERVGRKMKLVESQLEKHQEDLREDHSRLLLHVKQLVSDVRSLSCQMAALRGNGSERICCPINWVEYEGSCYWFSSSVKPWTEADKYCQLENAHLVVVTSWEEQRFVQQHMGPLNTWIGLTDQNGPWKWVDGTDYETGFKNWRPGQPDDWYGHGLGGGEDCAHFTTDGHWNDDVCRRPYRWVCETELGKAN
Protocol: Anti-human ASGR1 antibodies of this disclosure were examined for cross-reactivity with Cynomolgus macaque and rat ASGR1. Briefly, sequence encoding Cynomolgus macaque or rat ASGR1 was transiently transfected into CHO-S cells. Transfected cells were before performing cell binding assay. A total of about 1.5×10^4 transfected cells/well were added to 96-well V-bottom assay plate, incubated at 37° C., 5% CO2 for 48-72 hours, and then washed with culture medium before adding 100 μl of each ASGR1 antibody at different concentrations starting from 100 nM and 3-fold dilutions to a total of eight wells. The cells with antibody were incubated for 40 minutes at 4° C., then washed three times with 200 μl of fresh culture medium. To each well was added 50 μl PE conjugated goat anti-human Fc (SouthernBiotech) at 1:200 dilution in culture medium and then incubated at 4° C. for 20 minutes. After washing the plate once, the treated cells were resuspended in 200 μl culture medium and then the stained cells were analyzed on GUAVA® using Incyte software.
Anti-human ASGR1 antibodies of this disclosure were examined for cross-reactivity with Cynomolgus macaque and rat ASGR1. […] After washing the plate once, the treated cells were resuspended in 200 μl culture medium and then the stained cells were analyzed on GUAVA® using Incyte software.

[2] = target: T2, HepG2 cells (which express ASGR1) (Homo sapiens, UniProt P07306); test: Guava HepG2 cell binding screen of anti-ASGR1 mAbs; settings: humanized L4L clones; Good / Poor
T2 construct: endogenous in cells; host or cells: HepG2
T2 sequence (P07306 1-291): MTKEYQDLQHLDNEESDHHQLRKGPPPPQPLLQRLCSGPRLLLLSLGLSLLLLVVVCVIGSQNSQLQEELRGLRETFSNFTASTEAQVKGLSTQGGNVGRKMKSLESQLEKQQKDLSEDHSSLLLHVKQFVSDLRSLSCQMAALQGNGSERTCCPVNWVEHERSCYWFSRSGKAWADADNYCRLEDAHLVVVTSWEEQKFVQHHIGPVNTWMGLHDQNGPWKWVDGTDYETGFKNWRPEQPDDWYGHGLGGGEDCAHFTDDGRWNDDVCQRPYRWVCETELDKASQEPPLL
Protocol: Additionally, hybridomas producing monoclonal antibodies (mAbs) specific for human ASGR1 were prepared from Balb/C mice immunized with ASGR1-AviHis at a service provider using their propriety protocol. Antibody heavy and light chain sequences were obtained, amplified, and cloned. Clone supernatants containing the expressed mAbs were screened for binding to a human ASGR1-IgG1Fc fusion protein, and those with a positive signal as measured by enzyme linked immunosorbent assay (ELISA) were screened for cell binding on HepG2 cells (which express ASGR1). […] The isolated mAbs were further analyzed for the additional characteristics including, for example, titer, low aggregate content following protein A purification, high titer, lack of cross-blocking of ligand GalNac, calcium sensitivity, and cross-reactivity with rat ASGR1 protein.

[3] = target: T3, human ASGR1 extracellular domain (ECD) (Homo sapiens, UniProt P07306); test: Effect of calcium on anti-ASGR1 binding and dissociation (OCTET Red 96, Penta-His biosensors); design: key to Ca2+ sensitivity during association / Ca2+ sensitivity during dissociation / Ca2+ Sensitivity: N = No; Y = Yes; settings: for Ca2+ sensitivity during association: binding to human ASGR1 ECD with or without calcium; for Ca2+ sensitivity during association / Ca2+ sensitivity during dissociation: OCTET; for Ca2+ sensitivity during dissociation: dissociation from human ASGR1 ECD with or without calcium; for Ca2+ Sensitivity: overall summary column
T3 sequence (P07306 62-291 limits assumed): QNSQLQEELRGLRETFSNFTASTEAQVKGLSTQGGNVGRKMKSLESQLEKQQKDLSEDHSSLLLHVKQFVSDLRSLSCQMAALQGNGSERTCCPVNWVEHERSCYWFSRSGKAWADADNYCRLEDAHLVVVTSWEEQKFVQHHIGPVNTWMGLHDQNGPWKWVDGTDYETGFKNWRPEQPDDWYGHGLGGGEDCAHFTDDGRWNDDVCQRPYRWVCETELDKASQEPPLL
Protocol: The ability of anti-human ASGR1 antibodies of this disclosure to bind to human ASGR1 in the presence or absence of calcium in binding buffer was examined. Briefly, ASGR1 antibodies were bound to immobilized human ASGR1 extracellular domain (ECD) at saturating levels and subsequently dissociated under three different conditions as follows: (a) binding and dissociation with buffer containing calcium (PBS+1% BSA+0.2% Tween20+0.9 mM CaCl2), pH 7.4); (b) binding with buffer containing calcium and dissociation with buffer lacking calcium; and (c) binding and dissociation with buffer lacking calcium. Analysis of ASGR1 antibody binding to human ASGR1 ECD was performed using the OCTET® Red 96 instrument and analyzed using the OCTET®Data Analysis Software 9.0 (ForteBio). His-tagged human ASGR1 ECD was immobilized to OCTET® Penta-His biosensors and ASGR1 antibodies were subjected to avidity binding under the conditions described above. Association with the ASGR1 ECD was measured by the rate of and increase in magnitude of signal response at a given antibody concentration. Dissociation from the ASGR1 ECD was measured the rate of loss in signal upon removal of the antibody and further incubation with or without Ca^2+. […] Also tested were humanized antibodies hzH8K-1 and hzL4L-7.
Further analysis of the antibodies of this disclosure was to determine whether the presence of calcium was needed for binding (i.e., during association) of the antibodies to human ASGR1 ECD. […]

Guava HepG2 Screen [2]: Good
B3: hzL4L-5 (antibody, V domains shown)
VH: QVQLQESGPGLVKPSQTLSLTCTVSGYSISSDYAWNWIRQHPGKGLEWIGYISYSGSTRYNPSLKSRISITRDTSKNQFSLKLSSVTAADTAVYYCARRYRYDEGYGMDYWGQGTTVTVSS
VL: DIQMTQSPSSLSASVGDRVTITCRASENIYSNLAWYQQKPGKAPKLLIYAATNLADGVPSRFSGSGSGTDFTLTISSLQPEDFATYYCQHFWGTPPWTFGGGTKVEIK

Guava HepG2 Screen [2]: Good
B6: hzL4L-2: humanized L4L clone: "reduction in percent purity ... seen with the chimeric and hzL4L-1, -2 and -6" (antibody, V domains shown)
VH: B3 VH with Y27G, S30T
VL: B3 VL

Guava HepG2 Screen [2]: Good
B7: hzL4L-10: "Humanized sequences hzL4L-10 through hzL4L-14 were further modified by adding additional mutations in the light chain CDR2/FR3 junction, namely D56S ..., D56E ... or G57A" (antibody, V domains shown)
VH: B3 VH with S30T
VL: B3 VL with D56S

Guava HepG2 Screen [2]: Poor
B8: hzL4L-9 (antibody, V domains shown)
VH: B3 VH with T71S, R72V
VL: B3 VL

More lines, now with the values behind:

B1: hzL4L-7: "humanized anti-ASGR1 antibodies hzL4L-7 and hzL4L-14 as compared to parent mouse anti-ASGR1 antibody L4L" (antibody, V domains shown)
VH: B3 VH with I68V, S69T
VL: B3 VL
binding to rat ASGR1 [1]: not rat cross-reactive | Guava HepG2 Screen [2]: Good | Ca2+ sensitivity during association [3]: N | Ca2+ sensitivity during dissociation [3]: N | Ca2+ Sensitivity [3]: N | calcium sensitivity of binding to human ASGR1 ECD ([3]; sensitive: difference in binding signal after dissociation with vs without calcium >±10%): lacking sensitivity to calcium

B2: hzL4L-8 (antibody, V domains shown)
VH: B3 VH with S30T, T71S, R72V
VL: B3 VL
Guava HepG2 Screen [2]: Poor

B4: hzL4L-11: "Humanized sequences hzL4L-10 through hzL4L-14 were further modified by adding additional mutations in the light chain CDR2/FR3 junction, namely D56S ..., D56E ... or G57A" (antibody, V domains shown)
VH: B3 VH with S30T
VL: B3 VL with D56E
Guava HepG2 Screen [2]: Good

B5: hzL4L-6: humanized L4L clone: "reduction in percent purity ... seen with the chimeric and hzL4L-1, -2 and -6" (antibody, V domains shown)
VH: B3 VH with S30T, I68V, S69T
VL: B3 VL
Guava HepG2 Screen [2]: Good

B9: hzL4L-3 (antibody, V domains shown)
VH: B3 VH with S30T
VL: B3 VL
Guava HepG2 Screen [2]: Good

B10: hzL4L-4 (antibody, V domains shown)
VH: B3 VH with S30T, I68V, S69T, T71S, R72V
VL: B3 VL
Guava HepG2 Screen [2]: Poor

B11: hzH8K-1: "humanized anti-ASGR1 antibodies hzH8K-1 and hzH8K-10 as compared to parent mouse anti-ASGR1 antibody H8K" (antibody, V domains shown)
VH: QVQLQESGPGLVKPSQTLSLTCTVSGGSISSDYAWNWIRQHPGKGLEWIGYRSYRGSTSYNPSLKSRVTISVDTSKNQFSLKLSSVTAADTAVYYCARRGYYGSSSHWYFDVWGQGTTVTVSS
VL: DIQMTQSPSSLSASVGDRVTITCRASENIYSYLAWYQQKPGKAPKLLIYNAKTLAEGVPSRFSGSGSGTDFTLTISSLQPEDFATYYCQHHYGTPLTFGGGTKVEIK
binding to rat ASGR1 [1]: not rat cross-reactive | Ca2+ sensitivity during association [3]: N | Ca2+ sensitivity during dissociation [3]: N | Ca2+ Sensitivity [3]: N
